# Data taken from article PMC8476643 (2021).
# Biological target: SARS-CoV-2 receptor-binding domain (RBD) (SARS-CoV-2, UniProt P0DTC2)
# Assay: SPR
binder,measurement,value
"7D6 monoclonal antibody (antibody, V domains shown) VH: EVQLQQSGAELVRPGASVKLSCTASGFNIKDTYIHWVKQRPEQGLEWIGRIDPGDGDTEYDPSFQGKATITADTSSNTAYLELSSLTSEDTAVYYCTRFYDYVDYGMDYWGQGTSVTVSS VL: DIQMTQSPASLSASVGETVTITCRASGNIHNYLAWYQQKQGKSPQLLVYNAKTLADGVPSRFSGSGSGTQYSLKINSLQPEDFGSYYCQHFWSTPPWTFGGGTKLEVK",Kd,3 pM
